Key:
HypD = target: T1, HypD (Escherichia coli, UniProt P24192, C41A); test: HPLC (ZIC-HILIC) ADP formation, specific activity; type: biochemical; settings: 50 mM HEPES, 2 mM MgCl2, pH 7.4, 37 °C, 500 μM ATP; protein alone
T1 construct: Strep-tagged HypD (plasmid pIBA5hypDWT), [4Fe-4S] protein, overproduced and anaerobically purified from E. coli BEF314 (delta hypB-E)

[1] = substrate: Nc1ncnc2c1ncn2[C@@H]1O[C@H](COP(=O)(O)OP(=O)(O)OP(=O)(O)O)[C@@H](O)[C@H]1O; test: HPLC (ZIC-HILIC) ADP formation, Michaelis-Menten fit; type: biochemical, Escherichia coli; settings: 50 mM HEPES, 2 mM MgCl2, pH 7.4, 37 °C, protein alone
Excerpt: HPLC (ZIC-HILIC) ADP formation, Michaelis-Menten fit on HypD

[2] = substrate: Nc1ncnc2c1ncn2[C@@H]1O[C@H](COP(=O)(O)OP(=O)(O)OP(=O)(O)O)[C@@H](O)[C@H]1O; test: as above; type: biochemical, Escherichia coli; settings: 50 mM HEPES, 2 mM MgCl2, pH 7.4, 37 °C, as-isolated complex
Excerpt: HPLC (ZIC-HILIC) ADP formation, Michaelis-Menten fit on HybG-HypD complex

[3] = substrate: Nc1ncnc2c1ncn2[C@@H]1O[C@H](COP(=O)(O)OP(=O)(O)OP(=O)(O)O)[C@@H](O)[C@H]1O; test: as above; type: biochemical, Escherichia coli; settings: 50 mM HEPES, 2 mM MgCl2, pH 7.4, 37 °C, protein alone; remark: listed apart in the source
Excerpt: HPLC (ZIC-HILIC) ADP formation, Michaelis-Menten fit on HypC

[4] = substrate: Nc1ncnc2c1ncn2[C@@H]1O[C@H](COP(=O)(O)OP(=O)(O)OP(=O)(O)O)[C@@H](O)[C@H]1O; test: as above; type: biochemical, Escherichia coli; settings: 50 mM HEPES, 2 mM MgCl2, pH 7.4, 37 °C, as-isolated complex; remark: listed apart in the source
Excerpt: HPLC (ZIC-HILIC) ADP formation, Michaelis-Menten fit on HypC-HypD complex

[5] = substrate: Nc1ncnc2c1ncn2[C@@H]1O[C@H](COP(=O)(O)OP(=O)(O)OP(=O)(O)O)[C@@H](O)[C@H]1O; test: as above; type: biochemical, Escherichia coli; settings: 50 mM HEPES, 2 mM MgCl2, pH 7.4, 37 °C, protein alone; remark: listed apart in the source
Excerpt: HPLC (ZIC-HILIC) ADP formation, Michaelis-Menten fit on HybG

T1 sequence (P24192 whole entry C41A): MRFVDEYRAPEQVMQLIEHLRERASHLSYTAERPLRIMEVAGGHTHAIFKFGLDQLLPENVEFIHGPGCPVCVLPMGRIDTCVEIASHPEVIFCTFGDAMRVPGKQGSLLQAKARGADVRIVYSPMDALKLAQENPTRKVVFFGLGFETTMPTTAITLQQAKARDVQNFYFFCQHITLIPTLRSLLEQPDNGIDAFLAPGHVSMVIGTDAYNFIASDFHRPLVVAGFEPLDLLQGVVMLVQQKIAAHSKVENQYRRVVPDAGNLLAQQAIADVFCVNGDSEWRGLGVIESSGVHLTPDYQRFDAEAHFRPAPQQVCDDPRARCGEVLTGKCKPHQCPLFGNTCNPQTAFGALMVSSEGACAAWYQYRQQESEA

## Nc1ncnc2c1ncn2[C@@H]1O[C@H](COP(=O)(O)OP(=O)(O)OP(=O)(O)O)[C@@H](O)[C@H]1O [ATP]
HypD
  HPLC (ZIC-HILIC) ADP formation, specific activity: The HypDC41A variant on its own had an ATPase activity

B1: HypD (Escherichia coli K-12) (protein)
chain: MRFVDEYRAPEQVMQLIEHLRERASHLSYTAERPLRIMEVCGGHTHAIFKFGLDQLLPENVEFIHGPGCPVCVLPMGRIDTCVEIASHPEVIFCTFGDAMRVPGKQGSLLQAKARGADVRIVYSPMDALKLAQENPTRKVVFFGLGFETTMPTTAITLQQAKARDVQNFYFFCQHITLIPTLRSLLEQPDNGIDAFLAPGHVSMVIGTDAYNFIASDFHRPLVVAGFEPLDLLQGVVMLVQQKIAAHSKVENQYRRVVPDAGNLLAQQAIADVFCVNGDSEWRGLGVIESSGVHLTPDYQRFDAEAHFRPAPQQVCDDPRARCGEVLTGKCKPHQCPLFGNTCNPQTAFGALMVSSEGACAAWYQYRQQESEA
notes: Strep-tagged HypD (plasmid pIBA5hypDWT), [4Fe-4S] protein, overproduced and anaerobically purified from E. coli BEF314 (delta hypB-E)
[1]
  Km: 364.48 ± 100.16 µM
  Vmax: 0.398 µmol/min/mg

B2: HybG-HypD complex (Escherichia coli K-12) (protein)
chain 1: B1 chain
chain 2: MCIGVPGQVLAVGEDIHQLAQVEVCGIKRDVNIALICEGNPADLLGQWVLVHVGFAMSIIDEDEAKATLDALRQMDYDITSA
notes: heterodimer, HybG Strep-tagged (hypDEFhybGStrep plasmid), anaerobically co-purified from E. coli MC4100; small amounts of HypE occasionally co-purify
[2]
  Km: 34.78 ± 8.77 µM
  Vmax: 1.42 µmol/min/mg

B3: HypC (Escherichia coli K-12) (protein)
chain: CIGVPGQIRTIDGNQAKVDVCGIQRDVDLTLVGSCDENGQPRVGQWVLVHVGFAMSVINEAEARDTLDALQNMFDVEPDVGALLYGEEK
notes: Strep-tagged HypC (plasmid pIBA3hypCStrep), anaerobically purified from E. coli BEF314 (delta hypB-E)
[3]
  Km: 235.72 ± 71.15 µM
  Vmax: 0.234 µmol/min/mg

B4: HypC-HypD complex (Escherichia coli K-12) (protein)
chain 1: B1 chain
chain 2: B3 chain
notes: heterodimer, HypC Strep-tagged (pT7-7hypD-hypCStrep), anaerobically co-purified from E. coli MC4100 or BEF314
[4]
  Km: 143.48 ± 55.10 µM
  Vmax: 0.995 µmol/min/mg

B5: HybG (Escherichia coli K-12) (protein)
chain: B2 chain 2
notes: Strep-tagged HybG (plasmid pIBA3hybGWT), anaerobically purified from E. coli BEF314 (delta hypB-E)
[5]
  Km: 475.67 ± 29.91 µM
  Vmax: 0.56 µmol/min/mg
